This note sets out measurements from paper PMC9246348.

Substrate in series [1]: Nc1ccn([C@@H]2O[C@H](CO)[C@@H](O)[C@H]2O)c(=O)n1
In words: ADP-Glo kinase assay. It is filed as biochemical, Homo sapiens. Particulars: 100 µM ATP, 50 mM Tris pH 7.5, 5 mM MgCl2, 2 mM DTT, room temperature. (In general: ADP-Glo turns the ADP formed in a reaction into a luminescent signal.)

Substrate in series [2]: O=c1ccn([C@@H]2O[C@H](CO)[C@@H](O)[C@H]2O)c(=O)[nH]1
Kind of series: ADP-Glo kinase assay. It counts as biochemical, Homo sapiens. Particulars: 100 µM ATP, 50 mM Tris pH 7.5, 5 mM MgCl2, 2 mM DTT, room temperature.

B1: UCK2 (Homo sapiens) (protein)
chain: MAGDSEQTLQNHQQPNGGEPFLIGVSGGTASGKSSVCAKIVQLLGQNEVDYRQKQVVILSQDSFYRVLTSEQKAKALKGQFNFDHPDAFDNELILKTLKEITEGKTVQIPVYDFVSHSRKEETVTVYPADVVLFEGILAFYSQEVRDLFQMKLFVDTDADTRLSRRVLRDISERGRDLEQILSQYITFVKPAFEEFCLPTKKYADVIIPRGADNLVAINLIVQHIQDILNGGPSKRQTNGCLNGYTPSRKRQASESSSRPH
By Km is commonly meant the concentration of substrate that gives half-maximal velocity. One may read the Vmax as the rate approached at saturating substrate. In general, kcat/Km refers to the second-order rate constant that governs catalysis at low substrate concentration. As for B1, in “ADP-Glo kinase assay [1]”, the Michaelis constant (Km) is on record as 25.07 µM, the maximum rate (Vmax) amounted to 1.09 µmol/min/mg and the kcat/Km was 35000 M⁻¹ s⁻¹. Moreover, in the series “ADP-Glo kinase assay [2]”, the Km was found to be 207.3 µM, the Vmax was 3.98 µmol/min/mg and the specificity constant (kcat/Km) turned out to be 15000 M⁻¹ s⁻¹.
